Assays:
Experiment in all cases: SEC
[1] = molecular target: repaired and stabilized HA of H3N2 A/Singapore/INFIMH/16/0019/2016 (P194L in HA1) (influenza A virus H3N2 A/Singapore/INFIMH/16/0019/2016)
[2] = molecular target: repaired and stabilized HA of H3N2 A/Brisbane/10/2007 (P194L in HA1) (influenza A virus H3N2 A/Brisbane/10/2007)
[3] = molecular target: HA ectodomain of H1N1 A/California/07/2009 with K51I + E103I (influenza A virus H1N1 A/California/07/2009)

Substance: repaired and stabilized HA of H3N2 A/Singapore/INFIMH/16/0019/2016 (P194L in HA1) (domain or fragment)
- stoichiometry N [1]: 3

Substance: repaired and stabilized HA of H3N2 A/Brisbane/10/2007 (P194L in HA1) (domain or fragment)
- stoichiometry N [2]: 3

Substance: HA ectodomain of H1N1 A/California/07/2009 with K51I + E103I (domain or fragment)
- stoichiometry N [3]: 3

Source: paper PMC8833195
